Target: bacterial proteasome activator Bpa, full-length, wild-type (M. tuberculosis H37Rv) (UniProt P9WKX3)
Experiment: MST

“heat shock repressor HspR, wild-type (natural protein)” was tested, and the Kd was 4.3 µM.
